Measured values taken from patent publication US20180057604A1 (Genentech, published 2018).
Where two headings read alike, the source gives them in different places.

What was measured:
[1] = molecular target: T1, human BACE1 ECD; test: Octet, pH 5.0;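 note: antibodies captured on anti-human capture sensor tips, dissociation monitored in PBS with BSA buffer, kinetics fitted with a one-to-one binding model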
T1 construct: analyte of the Octet assay (200 nM) and enzyme of the first short substrate assay; also called human BACE1 extracellular domain
Protocol: (§1) Anti-BACE1 antibodies were loaded onto anti-human capture (AHC) sensors (tips) followed by 60 seconds baseline in assay buffer. […] Tips were transferred to assay buffer for 5 minutes, 30 minutes, or 120 minutes depending on the off-rate, for off-rate measurement. Assay buffer was either PBS+0.1% BSA, pH 7.5; or PBS+0.1% BSA, pH 5.0. Kinetics were analyzed using a 1:1 binding model.

[2] = molecular target: T2, murine BACE1 ECD; test: Octet, pH 5.0;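 note: antibodies captured on anti-human capture sensor tips, dissociation monitored in PBS with BSA buffer, kinetics fitted with a one-to-one binding model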
T2 construct: analyte of the Octet assay (200 nM) and enzyme of the first short substrate assay
Protocol: as §1

[3] = molecular target: T1, human BACE1 ECD; test: Octet, pH 7.5;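 note: antibodies captured on anti-human capture sensor tips, dissociation monitored in PBS with BSA, Kd obtained from kinetic fit to a one-to-one binding model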
Protocol: as §1

[4] = molecular target: T2, murine BACE1 ECD; test: Octet, pH 7.5;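 note: antibodies captured on anti-human capture sensor tips, dissociation monitored in PBS with BSA, Kd obtained from kinetic fit to a one-to-one binding model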
Protocol: as §1

[5] = molecular target: T3, human BACE1 (R&D Systems) (human, UniProt P56817); test: SPR (Biacore)
T3 construct: recombinant, commercial (R&D Systems)
Protocol: Binding affinities of certain anti-BACE1 IgGs were measured by surface plasmon resonance (SRP) using a BIAcore™-T100 instrument. […] Association rates (kon) and dissociation rates (koff) were calculated using a simple one-to-one Langmuir binding model (BIAcore Evaluation Software version 3.2). The equilibrium dissociation constant (KD) was calculated as the ratio koff/kon.

[6] = molecular target: T4, BACE1 in primary mouse cortical neurons (mouse, UniProt P56818 46-501); test: cell-based or functional assay
[7] = molecular target: T4, BACE1 in primary mouse cortical neurons; test: cell-based or functional assay; remark: listed apart in the source

T1 sequence (single chain, as listed by the source limits assumed): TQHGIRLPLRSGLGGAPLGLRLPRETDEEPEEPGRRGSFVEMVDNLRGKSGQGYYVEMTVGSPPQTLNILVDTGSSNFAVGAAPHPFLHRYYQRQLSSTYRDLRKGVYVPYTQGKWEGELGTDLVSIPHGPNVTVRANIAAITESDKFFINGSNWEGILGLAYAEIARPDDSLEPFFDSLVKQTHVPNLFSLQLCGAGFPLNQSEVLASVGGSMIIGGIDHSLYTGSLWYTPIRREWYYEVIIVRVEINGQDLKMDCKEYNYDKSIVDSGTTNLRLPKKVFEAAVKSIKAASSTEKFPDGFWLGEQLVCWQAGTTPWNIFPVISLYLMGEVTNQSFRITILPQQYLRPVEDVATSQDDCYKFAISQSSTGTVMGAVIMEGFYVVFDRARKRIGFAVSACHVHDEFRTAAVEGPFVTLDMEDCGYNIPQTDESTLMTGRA
T3 sequence (P56817 22-457 limits assumed): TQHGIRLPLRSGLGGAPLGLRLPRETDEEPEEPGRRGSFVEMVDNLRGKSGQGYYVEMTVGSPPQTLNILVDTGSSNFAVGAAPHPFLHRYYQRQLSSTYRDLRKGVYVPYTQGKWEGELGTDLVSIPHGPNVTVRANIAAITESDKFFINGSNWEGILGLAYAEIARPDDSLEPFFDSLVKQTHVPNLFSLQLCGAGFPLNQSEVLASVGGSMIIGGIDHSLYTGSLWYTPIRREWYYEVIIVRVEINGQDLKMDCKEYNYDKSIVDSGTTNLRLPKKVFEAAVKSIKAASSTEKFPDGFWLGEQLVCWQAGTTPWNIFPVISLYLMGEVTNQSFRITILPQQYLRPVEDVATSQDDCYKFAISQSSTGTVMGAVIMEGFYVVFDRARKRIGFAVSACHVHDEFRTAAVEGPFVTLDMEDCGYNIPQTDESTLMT
T4 sequence (P56818 46-501): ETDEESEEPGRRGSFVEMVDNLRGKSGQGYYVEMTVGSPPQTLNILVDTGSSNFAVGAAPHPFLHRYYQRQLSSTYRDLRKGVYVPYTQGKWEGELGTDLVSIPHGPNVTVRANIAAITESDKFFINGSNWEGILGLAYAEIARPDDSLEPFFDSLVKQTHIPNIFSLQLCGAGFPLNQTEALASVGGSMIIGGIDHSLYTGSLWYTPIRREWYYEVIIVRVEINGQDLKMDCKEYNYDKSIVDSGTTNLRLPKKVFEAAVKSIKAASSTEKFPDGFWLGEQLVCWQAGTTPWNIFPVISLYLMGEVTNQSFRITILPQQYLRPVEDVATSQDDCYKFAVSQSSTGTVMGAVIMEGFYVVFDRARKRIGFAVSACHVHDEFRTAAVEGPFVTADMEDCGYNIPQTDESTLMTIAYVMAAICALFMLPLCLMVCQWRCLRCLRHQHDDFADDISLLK
T2 sequence (single chain, as listed by the source limits assumed): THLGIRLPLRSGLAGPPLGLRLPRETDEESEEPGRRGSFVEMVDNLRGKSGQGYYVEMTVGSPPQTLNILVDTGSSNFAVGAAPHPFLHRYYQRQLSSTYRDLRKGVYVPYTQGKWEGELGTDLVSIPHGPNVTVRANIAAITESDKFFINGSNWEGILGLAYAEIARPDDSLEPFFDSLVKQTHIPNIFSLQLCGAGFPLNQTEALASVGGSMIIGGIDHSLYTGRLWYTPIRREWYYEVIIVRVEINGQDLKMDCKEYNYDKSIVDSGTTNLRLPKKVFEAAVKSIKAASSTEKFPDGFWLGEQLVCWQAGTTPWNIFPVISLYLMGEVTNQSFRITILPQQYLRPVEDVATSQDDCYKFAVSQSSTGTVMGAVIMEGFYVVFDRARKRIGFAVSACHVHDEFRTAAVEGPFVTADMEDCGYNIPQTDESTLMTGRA

Binder	Kd [1] [nM]	Kd [2] [nM]	Kd [3] [nM]	Kd [4] [nM]	Kd [5] [nM]	IC50, Abeta x-40 in mouse cortical neurons [6] [nM]	maximal % inhibition of Abeta x-40 [6] [%]	IC50, Abeta x-40 in mouse cortical neurons [7] [nM]	maximal % inhibition of Abeta x-40 [7] [%]
6297 (antibody, V domains shown, anti-BACE1 IgG) VH: QLQLQESGPGLVKPSETLSLTCTVSGGPISSSSYYWGWIRQPPGKGLEWIGNIYYSGSTYYNPSLRGRVTISVDTSKNQFSLKLSSVTAADTAVYYCARLGHGYNYFDLWGRGTLVTVSS VL: EIVLTQSPATLSLSPGERATLSCRASQSVSSYLAWFQQKPGQAPRLLIYDASNRATGIPARFSGSGSGTDFTLTISSLEPEDFAVYYCQQVYVWPPRTFGGGTKVEIK	0.28	0.32	0.4	< 0.26	3.87	3.89	63		
6299 (antibody, V domains shown, anti-BACE1 IgG) VH: QVQLVQSGAEVKKPGSSVKVSCKASGGTLSGYAISWVRQAPGQGLEWMGNIIPGFGTANYAQKSQGRVTITADESTSTAYMELSSLRSEDTAVYYCARSGGTRYGMLDVWGQGTMVTVSS VL: EIVMTQSPATLSVSPGERATLSCRASQSVGSNLAWYQQKPGQAPRLLIYGASTRATGIPARFSGSGSGTEFTLTISSLQSEDFAVYYCQQSYLWPPRTFGGGTKVEIK	< 0.28	< 0.46	< 0.41	< 0.41	5.82			10.4	70

Results, then the binder that gave them:

Kd [1] [nM]	Kd [2] [nM]	Kd [3] [nM]	Kd [4] [nM]	Kd [5] [nM]	IC50, Abeta x-40 in mouse cortical neurons [6] [nM]	maximal % inhibition of Abeta x-40 [6] [%]	IC50, Abeta x-40 in mouse cortical neurons [7] [nM]	maximal % inhibition of Abeta x-40 [7] [%]	Binder
< 0.28	< 0.28	< 0.28	< 0.28	8.26	0.88	75			6293 (antibody, V domains shown, anti-BACE1 IgG) VH: QLQLQESGPGLVKPSETLSLTCTVSGGSISSSSYYWGWIRQPPGKGLEWIGMIYYSGSTWYNPSLRSRVTISVDTSKNQFSLKLSSVTAADTAVYYCARVGHGVSYFDLWGRGTLVTVSS VL: EIVLTQSPATLSLSPGERATLSCRASQSVSSYLAWYQQKPGQAPRLLIYDASKRATGIPARFSGSGSGTDFTLTISSLEPEDFAVYYCQQVYTWPPRTFGGGTKVEIK
0.2	< 0.24	0.28	< 0.24	3.29	7.92	62			6296 (antibody, V domains shown, anti-BACE1 IgG) VH: QLQLQESGPGLVKPSETLSLTCTVSGGSISSSSYYWGWIRQPPGKGLEWIGNIYYSGSTYYNPSLRGRVTISVDTSKNQFSLKLSSVTAADTAVYYCARLGHGYNYFDLWGRGTLVTVSS VL: EIVLTQSPATLSLSPGERATLSCRASQSVSSYLAWFQQKPGQAPRLLIYDASNRATGIPARFSGSGSGTDFTLTISSLEPEDFAVYYCQQVYVWPPRTFGGGTKVEIK
